Assay results as given in the supplement of paper PMC11316812.
± gives the standard deviation of the averaged measurements.

How the values were obtained:
MCF7 = assay: percentage of EdU-negative (G0-arrested) nuclei per well, 72 h; higher = more G0 arrest; conditions: reference: sequence is the full UniProt precursor, the tested protein was the secreted form or ectodomain
hTERT-HMEC = assay: as above; conditions: reference: sequence is the full UniProt precursor, the tested protein was the secreted form or ectodomain
[1] = protein concentration 0.03125 µM
[2] = protein concentration 0.3125 µM
[3] = protein concentration 0.0117143 µM
[4] = protein concentration 0.117143 µM
[5] = protein concentration 0.0225 µM
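Further: secreted proteins added to cultured cells, EdU pulse at the end, nuclei found by Hoechst imaging, EdU status from nuclear versus surrounding ring intensity ratio, PBS as neutral control.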

Which results are given for “MKLVFLVLLFLGALGLCLAGRRRSVQWCAVSQPEATKCFQWQRNMRKVRGPPVSCIKRDSPIQCIQAIAENRADAVTLDGGFIYEAGLAPYKLRPVAAEVYGTERQPRTHYYAVAVVKKGGSFQLNELQGLKSCHTGLRRTAGWNVPIGTLRPFLNWTGPPEPIEAAVARFFSASCVPGADKGQFPNLCRLCAGTGENKCAFSSQEPYFSYSGAFKCLRDGAGDVAFIRESTVFEDLSDEAERDEYELLCPDNTRKPVDKFKDCHLARVPSHAVVARSVNGKEDAIWNLLRQAQEKFGKDKSPKFQLFGSPSGQKDLLFKDSAIGFSRVPPRIDSGLYLGSGYFTAIQNLRKSEEEVAARRARVVWCAVGEQELRKCNQWSGLSEGSVTCSSASTTEDCIALVLKGEADAMSLDGGYVYTAGKCGLVPVLAENYKSQQSSDPDPNCVDRPVEGYLAVAVVRRSDTSLTWNSVKGKKSCHTAVDRTAGWNIPMGLLFNQTGSCKFDEYFSQSCAPGSDPRSNLCALCIGDEQGENKCVPNSNERYYGYTGAFRCLAENAGDVAFVKDVTVLQNTDGNNNEAWAKDLKLADFALLCLDGKRKPVTEARSCHLAMAPNHAVVSRMDKVERLKQVLLHQQAKFGRNGSDCPDKFCLFQSETKNLLFNDNTECLARLHGKTTYEKYLGPQYVAGITNLKKCSTSPLLEACEFLRK [E7EQB2]”?
percentage of EdU-negative (MCF7; protein concentration 0.01 µM): 22.5 ± 0.39%; percentage of EdU-negative (MCF7; protein concentration 0.1 µM): 24.6 ± 0.5%; percentage of EdU-negative (hTERT-HMEC; protein concentration 0.01 µM): 5.27 ± 0.58%; percentage of EdU-negative (hTERT-HMEC; protein concentration 0.1 µM): 5.87 ± 0.35%

How did the “percentage of EdU-negative” value (MCF7; [1]) turn out when “MKLWDVVAVCLVLLHTASAFPLPAGKRPPEAPAEDRSLGRRRAPFALSSDSNMPEDYPDQFDDVMDFIQATIKRLKRSPDKQMAVLPRRERNRQAAAANPENSRGKGRRGQRGKNRGCVLTAIHLNVTDLGLGYETKEELIFRYCSGSCDAAETTYDKILKNLSRNRRLVSDKVGQACCRPIAFDDDLSFLDDNLVYHILRKHSAKRCGCI” was run?
The value was 24.9 ± 0.95%.

What about the “percentage of EdU-negative” value (MCF7; [2]) of the same sequence?
Its value is 29.1 ± 0.3%.

And the “percentage of EdU-negative” value (hTERT-HMEC; [1])?
The value was 5.08 ± 0.53%.

And the “percentage of EdU-negative” value (hTERT-HMEC; [2])?
Its value is 5.86 ± 0.094%.

How did the “percentage of EdU-negative” value (MCF7; [3]) turn out when “MKMMLVRRFRVLILMVFLVACALHIALDLLPRLERRGARPSGEPGCSCAQPAAEVAAPGWAQVRGRPGEPPAASSAAGDAGWPNKHTLRILQDFSSDPSSNLSSHSLEKLPPAAEPAERALRGRDPGALRPHDPAHRPLLRDPGPRRSESPPGPGGDASLLARLFEHPLYRVAVPPLTEEDVLFNVNSDTRLSPKAAENPDWPHAGAEGAEFLSPGEAAVDSYPNWLKFHIGINRYELYSRHNPAIEALLHDLSSQRITSVAMKSGGTQLKLIMTFQNYGQALFKPMKQTREQETPPDFFYFSDYERHNAEIAAFHLDRILDFRRVPPVAGRMVNMTKEIRDVTRDKKLWRTFFISPANNICFYGECSYYCSTEHALCGKPDQIEGSLAAFLPDLSLAKRKTWRNPWRRSYHKRKKAEWEVDPDYCEEVKQTPPYDSSHRILDVMDMTIFDFLMGNMDRHHYETFEKFGNETFIIHLDNGRGFGKYSHDELSILVPLQQCCRIRKSTYLRLQLLAKEEYKLSLLMAESLRGDQVAPVLYQPHLEALDRRLRVVLKAVRDCVERNGLHSVVDDDLDTEHRAASAR [Q8IXL6]” was run?
Its value is 23.5 ± 2.4%.

And the “percentage of EdU-negative” value (MCF7; [4])?
Its value is 24.2 ± 0.32%.

And the “percentage of EdU-negative” value (hTERT-HMEC; [3])?
Its value is 5.97 ± 0.7%.

What about the “percentage of EdU-negative” value (hTERT-HMEC; [4]) of the same sequence?
The value was 6.51 ± 0.12%.

“MKMRFLGLVVCLVLWTLHSEGSGGKLTAVDPETNMNVSEIISYWGFPSEEYLVETEDGYILCLNRIPHGRKNHSDKGPKPVVFLQHGLLADSSNWVTNLANSSLGFILADAGFDVWMGNSRGNTWSRKHKTLSVSQDEFWAFSYDEMAKYDLPASINFILNKTGQEQVYYVGHSQGTTIGFIAFSQIPELAKRIKMFFALGPVASVAFCTSPMAKLGRLPDHLIKDLFGDKEFLPQSAFLKWLGTHVCTHVILKELCGNLCFLLCGFNERNLNMSRVDVYTTHSPAGTSVQNMLHWSQAVKFQKFQAFDWGSSAKNYFHYNQSYPPTYNVKDMLVPTAVWSGGHDWLADVYDVNILLTQITNLVFHESIPEWEHLDFIWGLDAPWRLYNKIINLMRKYQ” was tested. Which “percentage of EdU-negative” value (MCF7; [5]) did it give?
Its value is 25.12 ± 0.15%.

And the “percentage of EdU-negative” value (MCF7; protein concentration 0.225 µM)?
Its value is 27.7 ± 0.37%.

And the “percentage of EdU-negative” value (hTERT-HMEC; [5])?
Its value is 4.11 ± 0.31%.

What about the “percentage of EdU-negative” value (hTERT-HMEC; protein concentration 0.225 µM) of the same sequence?
The value was 5.43 ± 0.3%.
